This test deals with NCAM Ig1-2-3 fragment (recombinant rat NCAM residues 1-289, deglycosylated) (rat). The test can be described thus: dynamic light scattering, 4 mg/ml in PBS pH 7.4, 18 C; self-association.

Consider “NCAM Ig1-2-3 fragment (recombinant rat NCAM residues 1-289, deglycosylated) (from UniProt P13595 20-308)”, for which the molecular weight in solution (DLS) was 78 kDa.
